Data as given in article PMC10397247.

Assays:
4H233-AA = target: T1, 4H233-AA; experiment: two-hybrid library CCmax;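 further: natural log of median RNA to DNA barcode read ratio; higher means stronger binding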
T1 chain: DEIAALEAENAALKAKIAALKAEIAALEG

4H2512-AA = target: T2, 4H2512-AA; experiment: two-hybrid library CCmax; settings: mean of both orientations;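 further: natural log of median RNA to DNA barcode read ratio; higher means stronger binding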
T2 chain: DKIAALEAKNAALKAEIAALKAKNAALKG

4H2646-AA = target: T3, 4H2646-AA; experiment: two-hybrid library CCmax; settings: mean of both orientations;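 further: natural log of median RNA to DNA barcode read ratio; higher means stronger binding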
T3 chain: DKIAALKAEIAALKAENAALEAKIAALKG

4H2687-AA = target: T4, 4H2687-AA; experiment: two-hybrid library CCmax; settings: mean of both orientations;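 further: natural log of median RNA to DNA barcode read ratio; higher means stronger binding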
T4 chain: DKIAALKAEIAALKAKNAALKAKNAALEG

4H2705-AA = target: T5, 4H2705-AA; experiment: two-hybrid library CCmax; settings: mean of both orientations
T5 chain: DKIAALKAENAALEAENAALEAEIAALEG

4H2758-AA = target: T6, 4H2758-AA; experiment: two-hybrid library CCmax; settings: mean of both orientations
T6 chain: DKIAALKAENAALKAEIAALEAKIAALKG

4H278-AA = target: T7, 4H278-AA; experiment: two-hybrid library CCmax; settings: mean of both orientations
T7 chain: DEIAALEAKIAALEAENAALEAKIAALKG

4H2873-AA = target: T8, 4H2873-AA; experiment: two-hybrid library CCmax; settings: mean of both orientations
T8 chain: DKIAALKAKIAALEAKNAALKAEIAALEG

4H2985-AA = target: T9, 4H2985-AA; experiment: two-hybrid library CCmax; settings: mean of both orientations
T9 chain: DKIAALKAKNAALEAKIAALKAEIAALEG

4H3134-AA = target: T10, 4H3134-AA; experiment: two-hybrid library CCmax; settings: mean of both orientations
T10 chain: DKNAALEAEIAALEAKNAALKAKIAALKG

4H3409-AA = target: T11, 4H3409-AA; experiment: two-hybrid library CCmax
T11 chain: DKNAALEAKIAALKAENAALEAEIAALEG

4H3595-AA = target: T12, 4H3595-AA; experiment: two-hybrid library CCmax
T12 chain: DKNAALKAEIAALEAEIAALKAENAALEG

4H3625-AA = target: T13, 4H3625-AA; experiment: two-hybrid library CCmax; settings: mean of both orientations
T13 chain: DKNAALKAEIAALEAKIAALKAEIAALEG

4H390-AA = target: T14, 4H390-AA; experiment: two-hybrid library CCmax; settings: mean of both orientations
T14 chain: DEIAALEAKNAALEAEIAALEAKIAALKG

4H3940-AA = target: T15, 4H3940-AA; experiment: two-hybrid library CCmax; settings: mean of both orientations
T15 chain: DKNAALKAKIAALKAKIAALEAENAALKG

4H510-AA = target: T16, 4H510-AA; experiment: two-hybrid library CCmax; settings: mean of both orientations
T16 chain: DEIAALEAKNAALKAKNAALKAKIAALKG

4H775-AA = target: T17, 4H775-AA; experiment: two-hybrid library CCmax; settings: mean of both orientations
T17 chain: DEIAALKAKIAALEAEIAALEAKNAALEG

4H816-AA = target: T18, 4H816-AA; experiment: two-hybrid library CCmax; settings: mean of both orientations
T18 chain: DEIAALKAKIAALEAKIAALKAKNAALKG

4H87-AA = target: T19, 4H87-AA; experiment: two-hybrid library CCmax
T19 chain: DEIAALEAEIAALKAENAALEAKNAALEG

P4mS = target: T20, P4mS; experiment: two-hybrid library CC1
T20 chain: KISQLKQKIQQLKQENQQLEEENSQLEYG

P5SC1 = target: T21, P5SC1; experiment: two-hybrid library CC1; settings: mean of both orientations
T21 chain: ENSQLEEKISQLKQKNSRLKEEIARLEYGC

P5SC2 = target: T22, P5SC2; experiment: two-hybrid library CC1; settings: mean of both orientations
T22 chain: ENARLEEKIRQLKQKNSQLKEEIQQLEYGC

P5 = target: T23, P5; experiment: two-hybrid library CC1; settings: mean of both orientations
T23 chain: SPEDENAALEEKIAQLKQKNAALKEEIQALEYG

P5mS = target: T24, P5mS; experiment: two-hybrid library CC1; settings: mean of both orientations
T24 chain: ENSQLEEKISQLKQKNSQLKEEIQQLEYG

P6SC1 = target: T25, P6SC1; experiment: two-hybrid library CC1; settings: mean of both orientations
T25 chain: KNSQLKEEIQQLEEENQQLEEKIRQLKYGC

P6SC2 = target: T26, P6SC2; experiment: two-hybrid library CC1; settings: mean of both orientations
T26 chain: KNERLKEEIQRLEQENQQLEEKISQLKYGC

P6 = target: T27, P6; experiment: two-hybrid library CC1; settings: mean of both orientations
T27 chain: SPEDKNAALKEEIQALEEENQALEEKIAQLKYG

P6mS = target: T28, P6mS; experiment: two-hybrid library CC1; settings: mean of both orientations
T28 chain: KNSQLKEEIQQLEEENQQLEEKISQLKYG

P7 = target: T29, P7; experiment: two-hybrid library CC1; settings: mean of both orientations
T29 chain: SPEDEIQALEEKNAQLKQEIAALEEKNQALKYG

P7mS = target: T30, P7mS; experiment: two-hybrid library CC1; settings: mean of both orientations
T30 chain: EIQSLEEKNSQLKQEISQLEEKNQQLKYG

P8 = target: T31, P8; experiment: two-hybrid library CC1; settings: mean of both orientations
T31 chain: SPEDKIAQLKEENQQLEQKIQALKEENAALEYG

P8mS = target: T32, P8mS; experiment: two-hybrid library CC1; settings: mean of both orientations
T32 chain: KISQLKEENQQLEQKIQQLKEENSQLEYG

P9 = target: T33, P9; experiment: two-hybrid library CC1; settings: mean of both orientations
T33 chain: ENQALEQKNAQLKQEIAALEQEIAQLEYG

Work on DEIAALEAENAALKAKIAALKAEIAALEG [4H233-AA] yielded an interaction score (4H233-AA) of 1.43, an interaction score (4H2512-AA) of 0.368 and an interaction score (4H2646-AA) of 1.88. It also gave an interaction score (4H2687-AA) of -1.45, an interaction score (4H2705-AA) of 1 and an interaction score (4H2758-AA) of 1.97. It also gave an interaction score (4H278-AA) of 1.7, an interaction score (4H2873-AA) of -0.478 and an interaction score (4H2985-AA) of 0.682. For the same binder, the interaction score (4H3134-AA) was -0.974, the interaction score (4H3409-AA) was 1.43 and the interaction score (4H3595-AA) was 0.594. For the same binder, the interaction score (4H3625-AA) was -0.183, the interaction score (4H390-AA) was 2.39 and the interaction score (4H3940-AA) was -1.57. For the same binder, the interaction score (4H510-AA) was -1.24, the interaction score (4H775-AA) was -1.43 and the interaction score (4H816-AA) was -0.563. The interaction score (4H87-AA) was -1.84.

For KISQLKQKIQQLKQENQQLEEENSQLEYG [P4mS], the interaction score (P4mS) was -3.22, the interaction score (P5SC1) was -2.92 and the interaction score (P5SC2) was -2.82. The interaction score (P5) was -3.02, the interaction score (P5mS) was -2.9 and the interaction score (P6SC1) was -2.65. It also gave an interaction score (P6SC2) of -2.64, an interaction score (P6) of -2.75 and an interaction score (P6mS) of -3. For the same binder, the interaction score (P7) was -2.78, the interaction score (P7mS) was -2.94 and the interaction score (P8) was -2.9. It also gave an interaction score (P8mS) of -2.9 and an interaction score (P9) of -2.65.
